Target: nsp12 (RdRp catalytic subunit);nsp7;nsp8 (SARS-CoV-2;SARS-CoV-2;SARS-CoV-2, UniProt P0DTD1;P0DTD1;P0DTD1 4393-5324;3860-3942;3943-4140, ||)
Test: EMSA
Conditions: protein: recombinant;recombinant;recombinant; tags: untagged (SUMO fusion cleaved, Ni2+-NTA and SEC purified);;; copies: 1;1;2; label: 5'-Cyanine 5.5

B1: GA1 RNA scaffold (structured_RNA)
RNA: AAAAGAAAAGACGCGUAGUUUUCUACGCG
- binding result: binds

Reference: paper PMC9228142, “Going Retro, Going Viral: Experiences and Lessons in Drug Discovery from COVID-19”
